Measurements from US20180221438A1, “MODULATING URACIL-DNA GLYCOSYLASE AND USES THEREOF” (Adaerata Limited Partnership, priority 2015, published 2018).

Tests used:
CH12F3-2 cells = test: Cloning efficiency of single CH12F3-2 cells; type: cell-based, mouse; settings: 14 days after single-cell dilution with cytokines to induce CSR to IgA, vs CH12F3-2 GFP
Excerpt: B cells must expand clonally while expressing AID during the GC reaction. Based on the results described above the inventors asked whether UNG deficiency might limit the proliferation capacity of transformed B-cells expressing AID. To assess the effect of UNG deletion on the proliferation of B-cells expressing AID, the inventors immunized WT and UNG-null mice with a T-dependent antigen to stimulate germinal center (GC) B-cell expansion and AID expression in vivo. The inventors used an AID-GFPtg reporter mouse that allows identifying AID+ GC B-cells in response to immunization ^6,28. […] This reduction was explained by the ˜3-fold smaller average GC size in Ung^−/− versus Ung^+/+ AID-GFPtg mice, rather than any difference in the number of GC (FIGS. 10C-D). […] However, it must be noted that at variance with immunization, which stimulates a few B-cells that need to undergo clonal expansion to form the GC, stimulation in vitro with cytokines causes massive proliferation accompanied by a high level of spontaneous cell death, which likely obscures the additional increase due to UNG-deficiency (not shown). To address this limitation, the inventors evaluated the cloning efficiency of single B-cells. […]

CH12F3 cells [1] = test: Terminal restriction fragment (TRF) analysis of telomeric DNA in CH12F3 cells; type: cell-based, mouse; settings: CH12F3 Ugi cells
human DLBCL cell lines = test: Growth curves of human DLBCL cell lines; type: cell-based; settings: DLBCL AID+ (Ocy-Ly3, Ocy-Ly10) and AID− (Ocy-Ly7, Ocy-Ly8) lines expressing Ugi
Experimental: Stable shRNA-mediated knockdowns were generated in CH12F3-2 cells following protocols from the RNAi Consortium (TRC). Transfected cells were selected with puromycin at 1 μg/ml final concentration. For double knockdowns, CH12F3-2 cells were first transfected with a pLKO.1 neomycin version of the shRNA (shAID or shGFP) and selected, then transduced with the second shRNA and selected again with puromycin before analysis. CH12F3 Ugi cells transduced with pMIG-Ugi-IRES-GFP were generated as described ^39, and human lymphoma Ugi cells were generated by retroviral delivery using a pLPC-PURO system (pLPC-Ugi-PURO) and transduced cells were selected with 1 ug/m1 of puromycin. The Ugi protein from bacteriophage PBS2 and its ability to inhibit eukaryotic UNG have been described ^69,31.
The inventors therefore stratified human DLBCL cell lines on the basis of their AID protein levels into high (DLBCL AID^+) (Ocy-Ly3 and Ocy-Ly10 in FIG. 13A) or low expressing (DLBCL AID^−) lines (Ocy-Ly7 and Ocy-Ly8 in FIG. 13A) and established derivatives expressing Ugi for each one.

CH12F3 cells [2] = test: Anaphase bridges by DAPI staining in CH12F3 cells expressing E6 and E7; type: cell-based, mouse; settings: CH12F3 Ugi with E6 and E7, vs CH12F3 Ugi shAID and control GFP cells
Excerpt: Anaphase cells were visualized by DAPI staining of cells fixed with 2% paraformaldehyde in 1X PBS and attached to slides pre-treated with poly-lysine and analyzed as described previously ^33.

CH12F3 cells [3] = test: ChIP for DNA damage marker at the telomeres; type: cell-based, mouse; settings: CH12F3 Ugi vs CH12F3 GFP
Experimental: ChIPs to evaluate interaction with the telomeric chromatin or the Ig locus were performed as described previously ^39,61. Briefly, cells were cross-linked with 1% formaldehyde for 20 min at room temperature and reaction was stopped by addition of glycine to 125 mM final concentration. Cells were washed twice with cold PBS, harvested and kept at −80° C. O.N. Samples were resuspended in RIPA buffer (150 mM NaCl, 1% [v/v] Igepal CA-630, 0.5% [w/v] Sodium Deoxycholate, 0.1% [w/v] SDS, 50 mM Tris-HCl at pH 8, 5 mM EDTA, protease and phosphatase inhibitors) and sonicated to generate DNA fragments <500 bp using a Bioruptor™ Next Gen (Diagenode).
In order to increase the sensitivity of the ChIP assays and evaluate the presence of AID at the telomeres we performed the immunoprecipitations with fractions enriched in crosslinked chromatin. For this goal B cells fixed with 1% formaldehyde as described above were resuspended in RIPA buffer, sonicated during 90 seconds using a Bioruptor™ Next Gen (Diagenode), and the lysates were then spun down briefly (2000g, for 5 min at 4 C) to remove debris. […] Samples were then clarified by centrifugation at 20,000 RPM (4° C.) and their protein content was measured using the BCA method (Biorad). […]

E. coli UNG = E. coli UNG (Escherichia coli, UniProt P12295); settings: cited from earlier work
E. coli UNG, sequence (P12295 whole entry): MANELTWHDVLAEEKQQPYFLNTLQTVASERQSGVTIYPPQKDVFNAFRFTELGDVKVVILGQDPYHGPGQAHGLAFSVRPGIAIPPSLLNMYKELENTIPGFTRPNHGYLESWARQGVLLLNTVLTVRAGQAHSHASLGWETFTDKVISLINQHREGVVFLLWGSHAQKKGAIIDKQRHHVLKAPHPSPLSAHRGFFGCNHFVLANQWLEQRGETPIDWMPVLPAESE

B1: Ugi: Uracil Glycosylase Inhibitor of Bacillus subtilis bacteriophage PBS1/PBS2, small protein (9.5 kDa), SEQ ID NO: 29; expressed in cells by retroviral delivery (protein)
chain: MTNLSDIIEKETGKQLVIQESILMLPEEVEEVIGNKPESDILVHTAYDESTDENVMLLTSDAPEYKPWALVIQDSNGENKIKML
modifications: bacillus subtilis
notes: expressed in cells by retroviral delivery
With B1 the cloning capacity (CH12F3-2 cells) was “significant decrease in the cloning capacity”, the “intra-telomeric G-rich single-stranded DNA” value (CH12F3 cells [1]; DNA treated with exonuclease before TRF analysis) was “MSH2-dependent increase in intra-telomeric G-rich single-stranded DNA” and the “telomere G-rich 3′ overhang signal” value (CH12F3 cells [1]; terminal restriction fragment analysis) was “normal telomere G-rich 3′ overhang signal”. The “growth of DLBCL cells” value (human DLBCL cell lines) was “only impaired the growth of DLBCL AID+ cells”, the anaphase bridges (CH12F3 cells [2]) was “significantly accumulated anaphase bridges” and the “phospho-ser129-H2AX at the telomeres” value (CH12F3 cells [3]) was “AID-dependent accumulation of phospho-ser129-H2AX”. The “inhibition of UNG” value (E. coli UNG) was “inhibits E. coli UNG as well as UNG from other species”.
